Consider 94 variants from the supplement of paper PMC10567573.

B1: EPB41L3 (parent)
chain: KKFLTLGSKFRYSGRTQAQTRRAS
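Further: lentivirally expressed fusions sorted by FACS into six bins by GFP to DsRed ratio, PSI derived from sequencing read proportions per bin multiplied by bin number.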

The variants in the data set derive from B1. Kind of data set: protein stability index of a GFP-peptide fusion (GPS, HEK-293T) (PSI 1-6); higher = more stable. Conditions: c terminus: a fixed tail appended.
On to KKFLTLGSKFRYSGDTQAQTRRAS, for which the protein stability index came to 3.81.
The figure for KKFLTLGSKFRYSGVTQAQTRRAS is 2.93; for KKFLTLGSKFRYSGPTQAQTRRAS it is 2.58; for KKFLTLGSKFRYSGATQAQTRRAS it is 3.32.
On to KKFLTLGSKFRYSGHTQAQTRRAS, for which the protein stability index worked out at 3.12.
As to KKFLTLGSKFRYSGCTQAQTRRAS, the protein stability index amounted to 2.66.
Take KKFLTLGSKFRYSGRVQAQTRRAS: the protein stability index worked out at 2.74.
The figure for KKFLTLGSKFRYSGRGQAQTRRAS is 2.54.
Turning to KKFLTLGSKFRYSGRDQAQTRRAS, the protein stability index is 2.87.
The figure for KKFLTLGSKFRYSGRRQAQTRRAS is 3.13; for KKFLTLGSKFRYSGRLQAQTRRAS it is 2.52.
As to KKFLTLGSKFRYSGRYQAQTRRAS, the protein stability index is 3.72.
The figure for KKFLTLGSKFRYSGRIQAQTRRAS is 2.83; for KKFLTLGSKFRYSGRWQAQTRRAS it is 1.84.
For KKFLTLGSKFRYSGRKQAQTRRAS, the protein stability index was found to be 3.02.
As to KKFLTLGSKFRYSGRTQAQTRRAM, the protein stability index stood at 2.5.
The figure for KKFLTLGSKFRYSGRTQAQTRRAI is 2.5; for KKFLTLGSKFRYSGRTQAQTRRAD it is 3.31; for KKFLTLGSKFRCSGRTQAQTRRAS it is 2.54.
Turning to KKFLTLGSKFRASGRTQAQTRRAS, the protein stability index amounted to 4.58.
The figure for KKFLTLGSKFRQSGRTQAQTRRAS is 3.82; for KKFLTLGSKFRISGRTQAQTRRAS it is 3.69.
The figure for KKFLTLGSKFRYSCRTQAQTRRAS is 2.06.
The figure for KKFLTLGSKFRYSARTQAQTRRAS is 3.42; for KKFLTLGSKFRYSERTQAQTRRAS it is 3.75; for KKFLTLGSKFRYSTRTQAQTRRAS it is 3.81.
Take KKFLTLGKKFRYSGRTQAQTRRAS: the protein stability index amounted to 2.56.
The figure for KKFLTLGVKFRYSGRTQAQTRRAS is 2.81; for KKFLTLGYKFRYSGRTQAQTRRAS it is 3.4.
In the case of KKFFTLGSKFRYSGRTQAQTRRAS, the protein stability index was found to be 2.99.
The figure for KKFCTLGSKFRYSGRTQAQTRRAS is 3.06; for KKFPTLGSKFRYSGRTQAQTRRAS it is 3.8; for KKFSTLGSKFRYSGRTQAQTRRAS it is 2.91.
Regarding KKFLTLGSKFRYSGRTQASTRRAS, the protein stability index came out at 2.45.
The figure for KKFLTLGSKFRYSGRTQATTRRAS is 2.61.
In the case of KKFLTLGSKFRYSGRTQARTRRAS, the protein stability index turned out to be 3.03.
The figure for KKFLTLGSKFRYSGRTQAHTRRAS is 2.52; for KKFLTLGSKVRYSGRTQAQTRRAS it is 2.92; for KKFLTLGSKSRYSGRTQAQTRRAS it is 4.22.
The figure for KKFLTLGSKKRYSGRTQAQTRRAS is 4.16; for KKFLTLGSKFRYTGRTQAQTRRAS it is 2.74; for KKFLTLGSKFRYDGRTQAQTRRAS it is 2.85.
Regarding KKFLTLGSKFRYVGRTQAQTRRAS, the protein stability index was found to be 2.01.
The figure for KSFLTLGSKFRYSGRTQAQTRRAS is 2.74; for KWFLTLGSKFRYSGRTQAQTRRAS it is 2.31.
The figure for KQFLTLGSKFRYSGRTQAQTRRAS is 2.06; for KTFLTLGSKFRYSGRTQAQTRRAS it is 2.44; for KEFLTLGSKFRYSGRTQAQTRRAS it is 2.47.
The figure for KKFLTLGSKFRYSGRTTAQTRRAS is 2.38; for KKFLTLGSKFRYSGRTEAQTRRAS it is 2.76.
Turning to KKFLTLGSKFRYSGRTYAQTRRAS, the protein stability index worked out at 2.12.
As to KKFLTLGSKFRYSGRTIAQTRRAS, the protein stability index amounted to 2.57.
In the case of KKFLTLGSKFRYSGRTFAQTRRAS, the protein stability index was found to be 1.76.
For the variant KKFLTLGSKFRYSGRTMAQTRRAS, the protein stability index was determined as 2.77.
The figure for KKFLTLGSKFRYSGRTQAQTRRLS is 3.66; for KKFLTLGSKFRYSGRTQAQTRRIS it is 3.4; for KKFLTLGSKFRYSGRTQAQTRRKS it is 3.81.
As for KKFLTLGSKFRYSGRTQAQTRRSS, the protein stability index is 2.96.
In the case of KKFLTLGSKFRYSGRTQAQTRRDS, the protein stability index worked out at 2.53.
For the variant KKFLRLGSKFRYSGRTQAQTRRAS, the protein stability index came to 3.06.
In the case of KKFLWLGSKFRYSGRTQAQTRRAS, the protein stability index stood at 1.56.
As for KKFLALGSKFRYSGRTQAQTRRAS, the protein stability index came out at 3.78.
For KKFLSLGSKFRYSGRTQAQTRRAS, the protein stability index is 3.05.
The figure for KKFLCLGSKFRYSGRTQAQTRRAS is 2.21; for KKILTLGSKFRYSGRTQAQTRRAS it is 3.32.
The figure for KKQLTLGSKFRYSGRTQAQTRRAS is 2.95.
The figure for KKCLTLGSKFRYSGRTQAQTRRAS is 3.76; for KKSLTLGSKFRYSGRTQAQTRRAS it is 3.78; for KKDLTLGSKFRYSGRTQAQTRRAS it is 3.81.
With KKHLTLGSKFRYSGRTQAQTRRAS, the protein stability index was found to be 3.82.
The figure for KKFLTLGSKFRYSGRTQAQDRRAS is 2.33.
The figure for KKFLTLGSKFRYSGRTQAQCRRAS is 3.77.
The figure for KKFLTLGSKFRYSGRTQAQHRRAS is 2.91; for KKFLTLGSKFRYSGRTQAQGRRAS it is 1.9; for KKFLTLGSKFRYSGRTQAQPRRAS it is 2.81.
For KKFLTLNSKFRYSGRTQAQTRRAS, the protein stability index came to 2.88.
As to KKFLTLPSKFRYSGRTQAQTRRAS, the protein stability index is 3.18.
The figure for KKFLTLCSKFRYSGRTQAQTRRAS is 2.38; for KKFLTLFSKFRYSGRTQAQTRRAS it is 2.4; for KKFLTLGSKFRYSGRTQAQTWRAS it is 2.85.
In the case of KKFLTLGSKFRYSGRTQAQTLRAS, the protein stability index was 1.61.
The figure for KKFLTLGSKFRYSGRTQAQTTRAS is 2.24; for KKFLTLGSKFRYSGRTQAQTERAS it is 2.2.
For the variant SKFLTLGSKFRYSGRTQAQTRRAS, the protein stability index came to 2.76.
On to VKFLTLGSKFRYSGRTQAQTRRAS, for which the protein stability index came to 2.25.
The figure for LKFLTLGSKFRYSGRTQAQTRRAS is 1.91; for RKFLTLGSKFRYSGRTQAQTRRAS it is 3.7; for AKFLTLGSKFRYSGRTQAQTRRAS it is 2.2.
Regarding GKFLTLGSKFRYSGRTQAQTRRAS, the protein stability index amounted to 3.83.
In the case of YKFLTLGSKFRYSGRTQAQTRRAS, the protein stability index worked out at 2.23.
The figure for TKFLTLGSKFRYSGRTQAQTRRAS is 2.38; for KKFLTLGSKFNYSGRTQAQTRRAS it is 2.63.
The figure for KKFLTDGSKFRYSGRTQAQTRRAS is 4.05; for KKFLTCGSKFRYSGRTQAQTRRAS it is 3.17.
